Results on 28 sequences are retold here after the supplement of paper PMC10724198.

In this series the test system is Saccharomyces cerevisiae. Put plainly: protein stability index of tFT-peptide fusion (C-terminal peptide) (PSI (0-1 scale)); higher = more stable (slower turnover). The note with it: temperature: 30 C. As for the experimental part: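 MPS profiling in S. cerevisiae of the yeast C-terminome library: the last 12 aa of each annotated ORF are fused to the C-terminus of a sfGFP-mCherry timer, after a GGGS linker. Cells are FACS-sorted into 8 mCherry/sfGFP bins and deep-sequenced. PSI runs from 0 (unstable) to 1 (stable); wild type and das1Δ backgrounds, two technical replicates each.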

Where [1] appears, read: genetic background: das1 deletion.

± gives the standard deviation of the averaged measurements.

On to SVHPLIISYSQL [TRM732 C-terminal 12 aa], for which the protein stability index by setting is: under setting [1], 0.716 ± 0.05; (genetic background: wild type) 0.637 ± 0.024.

As to SVVSQPPPGYEQ [HSE1 C-terminal 12 aa], the protein stability index is, setting by setting: under setting [1], 0.7102 ± 0.0066; (genetic background: wild type) 0.667 ± 0.02.

With SVYQPFFALCGL [YDR355C C-terminal 12 aa], the protein stability index is 0.6756 ± 0.0066 under setting [1] and 0.645 ± 0.017 (genetic background: wild type).

SYRLGKNAAEGK [CAP1 C-terminal 12 aa]: the protein stability index by setting is: under setting [1], 0.685 ± 0.017; (genetic background: wild type) 0.663 ± 0.025.

As for TAPLGKALHDLS [REE1 C-terminal 12 aa], the protein stability index under setting [1] worked out at 0.687 ± 0.059 and the protein stability index (genetic background: wild type) was found to be 0.72 ± 0.059.

In turn, TASQILKFEGRI [GRE2 C-terminal 12 aa] showed a protein stability index under setting [1] of 0.718 ± 0.035 and a protein stability index (genetic background: wild type) of 0.695 ± 0.057.

For the sequence TEAMNSEIDGTK [ATG16 C-terminal 12 aa], the protein stability index was found to be 0.686 ± 0.017 under setting [1] and 0.703 ± 0.042 (genetic background: wild type).

TFELVMRFLGEE [YMC2 C-terminal 12 aa]: the protein stability index is, setting by setting: under setting [1], 0.709 ± 0.0094; (genetic background: wild type) 0.669 ± 0.0095.

With TFQKAQVEAEWV [TOA1 C-terminal 12 aa], the protein stability index was found to be 0.70901 ± 0.00064 under setting [1] and 0.692 ± 0.027 (genetic background: wild type).

Take “TFTLAVTPYPAF [YLL066W-B C-terminal 12 aa]”: the protein stability index came out at 0.715 ± 0.013 under setting [1] and 0.6847 ± 0.0036 (genetic background: wild type).

In the case of TGNGPNLDNLKY [ARA1 C-terminal 12 aa], the protein stability index under setting [1] turned out to be 0.722 ± 0.0074 and the protein stability index (genetic background: wild type) was 0.641 ± 0.019.

With “TGWPTGLRHQHT [YER133W-A C-terminal 12 aa]”, the protein stability index under setting [1] turned out to be 0.7212 ± 0.0034 and the protein stability index (genetic background: wild type) was determined as 0.695 ± 0.011.

For the sequence TKKLLRDYFSQF [SMN1 C-terminal 12 aa], the protein stability index is 0.712 ± 0.0096 under setting [1] and 0.188 ± 0.014 (genetic background: wild type).

Turning to TKMFPAHSHVLW [THP1 C-terminal 12 aa], the protein stability index is, setting by setting: under setting [1], 0.716 ± 0.032; (genetic background: wild type) 0.72 ± 0.014.

Sequence TLGLLCLIFGLP [YOR277C C-terminal 12 aa] displayed a protein stability index under setting [1] of 0.482 ± 0.0081 and a protein stability index (genetic background: wild type) of 0.499 ± 0.018.

In turn, TLLNAQKEALKK [APT1 C-terminal 12 aa] yielded a protein stability index under setting [1] of 0.6698 ± 0.0014 and a protein stability index (genetic background: wild type) of 0.684 ± 0.03.

Regarding “TLSKEPFLVFSF [YDL185C-A C-terminal 12 aa]”, the protein stability index turned out to be 0.499 ± 0.026 under setting [1] and 0.494 ± 0.025 (genetic background: wild type).

TMSLLKRNPRNH [TRM44 C-terminal 12 aa]: the protein stability index reads like this: under setting [1], 0.704 ± 0.02; (genetic background: wild type) 0.683 ± 0.032.

TNEWCLFTPDSP [MLH2 C-terminal 12 aa] gave a protein stability index under setting [1] of 0.744 ± 0.018 and a protein stability index (genetic background: wild type) of 0.7355 ± 0.005.

In the case of TNMSSVSAFISR [PTK2 C-terminal 12 aa], the protein stability index worked out at 0.718 ± 0.0017 under setting [1] and 0.713 ± 0.013 (genetic background: wild type).

Consider TNQPVNENNDLK [SNF3 C-terminal 12 aa], for which the protein stability index came out at 0.667 ± 0.013 under setting [1] and 0.629 ± 0.0078 (genetic background: wild type).

TPHNHNQNQHTN [RSF1 C-terminal 12 aa] registered a protein stability index under setting [1] of 0.72 ± 0.029 and a protein stability index (genetic background: wild type) of 0.706 ± 0.03.

The sequence TPSSVQSSPKRA [ZRG8 C-terminal 12 aa] showed a protein stability index under setting [1] of 0.696 ± 0.017 and a protein stability index (genetic background: wild type) of 0.668 ± 0.0075.

As for TPTCQDPSLTEV [YJR038C C-terminal 12 aa], the protein stability index was 0.7253 ± 0.0048 under setting [1] and 0.6895 ± 0.0068 (genetic background: wild type).

In the case of TSLGLTRTTIIP [CDC4 C-terminal 12 aa], the protein stability index was 0.685 ± 0.021 under setting [1] and 0.6778 ± 0.0043 (genetic background: wild type).

Regarding TSPIGEFQSIKH [SPT21 C-terminal 12 aa], the protein stability index reads like this: under setting [1], 0.731 ± 0.015; (genetic background: wild type) 0.674 ± 0.037.

As to TSQEINDRLEAL [PRE8 C-terminal 12 aa], the protein stability index by setting is: under setting [1], 0.666 ± 0.027; (genetic background: wild type) 0.643 ± 0.0082.

Consider TSSQKIYHTSNK [IPK1 C-terminal 12 aa], for which the protein stability index under setting [1] was determined as 0.686 ± 0.05 and the protein stability index (genetic background: wild type) was determined as 0.672 ± 0.049.
